We go through two molecules from patent publication US20230235054A1 (BIOATLA, published 2023).

For experiment [1], the target named is T1, human Nectin-4 on cells (human, UniProt Q96NY8 32-510).
T1 construct: whole, on cells; also called HEK293 cells expressing human Nectin-4; T47D cells that express human Nectin-4
T1 sequence (looked up): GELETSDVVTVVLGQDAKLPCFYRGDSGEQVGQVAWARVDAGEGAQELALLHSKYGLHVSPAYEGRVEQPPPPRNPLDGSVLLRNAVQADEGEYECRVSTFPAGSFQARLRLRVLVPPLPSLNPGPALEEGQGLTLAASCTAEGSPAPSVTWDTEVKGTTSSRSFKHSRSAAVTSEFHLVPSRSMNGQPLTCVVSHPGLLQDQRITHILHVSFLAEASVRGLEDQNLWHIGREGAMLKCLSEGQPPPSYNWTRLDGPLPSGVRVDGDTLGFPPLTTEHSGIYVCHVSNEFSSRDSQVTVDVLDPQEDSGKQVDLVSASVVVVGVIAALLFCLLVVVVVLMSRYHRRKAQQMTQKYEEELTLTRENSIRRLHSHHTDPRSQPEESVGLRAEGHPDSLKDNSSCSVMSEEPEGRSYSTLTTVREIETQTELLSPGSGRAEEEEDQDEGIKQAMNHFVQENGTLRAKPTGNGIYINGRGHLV
In words: FACS, T47D cells. (In general: In flow cytometry, cells or beads pass a laser one at a time.)

Experiment [2] addresses T1, human Nectin-4 on cells. In words: FACS, T47D cells. The source holds these as a separate data set.
Experiment [3] deals with T1, human Nectin-4 on cells. In words: cell-based or functional assay.
In a further experiment the target is T2, huNectin4-His (human, UniProt Q96NY8 32-349).
T2 construct: Immobilized on the SPR chip; also called humanNectin4; human Nectin4; not shown: His tag
T2 sequence (looked up): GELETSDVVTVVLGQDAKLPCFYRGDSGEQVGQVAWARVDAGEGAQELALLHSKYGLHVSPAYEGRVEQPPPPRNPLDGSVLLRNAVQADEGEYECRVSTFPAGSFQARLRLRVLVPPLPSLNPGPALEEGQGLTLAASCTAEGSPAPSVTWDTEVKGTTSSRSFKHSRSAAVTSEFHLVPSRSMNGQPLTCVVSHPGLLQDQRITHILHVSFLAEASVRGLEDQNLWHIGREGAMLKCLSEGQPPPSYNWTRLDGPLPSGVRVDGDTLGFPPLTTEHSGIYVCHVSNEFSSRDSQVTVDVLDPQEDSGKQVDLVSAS
In words: SPR, huNectin4-His immobilized, pH 7.4. Here is the method: Binding kinetics of anti-Nectin4 antibodies were measured by surface plasmon resonance using a SPR2/4 instrument (Sierra Sensors, Hamburg, Germany) and flat amine sensor chips. The SPR sensor contained four flow cells (FC1-FC4), each of which was addressed individually or in groups. huNectin4-His was immobilized in FC2, and cynoNectin4-mFc in FC4. No protein was immobilized in FC1 and FC3 which were used as control surfaces for FC2 and FC4, respectively.
All injections were done at a flow rate of 25 μL/min at 25° C. The sensor surface was activated with 1-ethyl-3-(3-dimethylaminopropyl)-carbodiimide (EDC) and N-hydroxysuccinimide (NHS) (200 mM/50 mM) for 480 seconds. HuNectin4-His (2 μg/mL in 10 mM NaAc, pH4.5) was injected for 480s and the surface was inactivated by injecting 1M ethanolamine-HCl for 480s. CynoNectin4 was immobilized using the same conditions as described for huNectin4-His, except that the cynoNectin4 was diluted into 10 mM NaAc buffer having pH 5.0. The control surface was activated and deactivated using the same conditions, but without injecting protein. PBST buffer (PBS pH 7.4 with 0.05% TWEEN20™) was used as running buffer for the surface preparation. The running solution was switched to PBST with 30 mM sodium bicarbonate with the pH adjusted as indicated in the figures before the analyte injections. The instrument was equilibrated with the running solution for one hour before the first analyte injection.
The off-rate was measured for 360s. The chip surface was regenerated after each cycle of interaction analysis by injecting 6 μL of 10 mM glycine (pH 2.0). Flow cells 1 and 3 without immobilized protein were used as control surfaces for reference subtraction.
(Surface plasmon resonance follows binding to a sensor surface in real time, without labels.)

For experiment [4], the target named is T1, human Nectin-4 on cells. In words: FACS, HEK293 cells expressing human Nectin-4. Here is the method:
FACS analysis was carried out using HEK293 cells expressing human Nectin-4.

The target of experiment [5] is T3, recombinant human Nectin4 antigen (human, UniProt Q96NY8 32-349).
T3 construct: construct not described
T3 sequence (looked up): T2 sequence (looked up)
In words: pH range ELISA, 30 ng/mL, pH of 50% binding activity. Here is the method:
1) Coat ELISA plates with 100 μL of 1 μg/mL recombinant human Nectin4 antigen in carbonate-bicarbonate coating buffer [0462] 2) Cover plates with sealing film and incubate overnight at 4° C. […] 3) Decant plates and tap out residual liquid on a stack of paper towels [0464] 4) Wash wells twice by dispensing 200 μL of various pH incubation buffer to the wells and completely aspirate the contents [0465] 5) Add 200 μL of various pH incubation buffers (pH5.5, 6.0, 6.2, 6.5, 6.7, 7.0 and 7.4) to the wells. Cover with sealing film and place the plate onto a plate shaker (set to 200 rpm) for 60 minutes at room temperature [0466] 6) Decant plates and tap out residual liquid on a stack of paper towels [0467] 7) Serially dilute test substances in various pH incubation buffers (pH5.5, 6.0, 6.2, 6.5, 6.7, 7.0 and 7.4) to 30 ng/mL [0468] 8) Add 100 μL/well of diluted test substances to the plates [0469] 9) Cover with sealing film and place the plates onto a plate shaker (set to 200 rpm) for 60 minutes at room temperature. [0470] 10) Decant plates and tap out residual liquid on a stack of paper towels. […] 12) Dilute the HRP secondary antibody at 1:2500 in various pH incubation buffers (pH5.5, 6.0, 6.2, 6.5, 6.7, 7.0 and 7.4) [0473] 13) Add 100 μL HRP secondary antibody diluted in various pH incubation buffers (pH5.5, 6.0, 6.2, 6.5, 6.7, 7.0 and 7.4) to each well. […] 14) Cover with sealing film and place the plates onto a plate shaker (set to 200 rpm) for 60 minutes at room temperature. [0475] 15) Decant plates and tap out residual liquid on a stack of paper towels. […] 16) Wash wells three times by dispensing 200 μL of various pH wash buffer (pH5.5, 6.0, 6.2, 6.5, 6.7, 7.0 and 7.4) to the wells and completely aspirating the contents [0477] 17) Dispense 50 μL per well of the TMB substrate solution into all wells of plates.

As a reminder, the Kd is the constant that tells how readily two partners part at equilibrium. Usually koff stands for a measure of how fast the partners let go of each other. Low readings indicate slow dissociation, high ones fast dissociation. Usually kon stands for the rate constant with which the complex forms. Read a low kon as slower complex formation.

Residue numbers refer to the chain shown, from its start.

B1: BAP-143-00-01 (antibody, V domains shown)
VH: EVQLVESGGGLVQPGGSLRLSCAASGFTFSSYNMNWVRQAPGKGLEWVSYISSSSSTIYYADSVKGRFTISRDNAKNSLSLQMNSLRDEDTAVYYCARAYYYGMDVWGQGTTVTVSS
VL: DIQMTQSPSSVSASVGDRVTITCRASQGISGWEAWYQQKPGKAPKFLIYAASTLQSGVPSRFSGSGSGTDFTLTISSLQPEDFATYYCQQANSFPPTFGGGTKVEIK
notes: Used as a conjugate with a linker payload (CAB ADC)
For B1, in the experiment with human Nectin-4 on cells [1], the “Ratio (pH 7.4/6.0) of EC50” value is 6.7. Also, the “Ratio (pH 7.4/6.0) of EC50” value with human Nectin-4 on cells [2] is 6.2. In addition, the “Ratio (pH 7.4/6.0) of cell killing EC50” value with human Nectin-4 on cells [3] amounted to 2.1. In the experiment with huNectin4-His, this molecule showed a Kd of 3.89 nM, a koff of 0.00267 s⁻¹ and a kon of 686000 M⁻¹ s⁻¹. Further, the “Ratio (pH 7.4/6.0) of EC50” value with human Nectin-4 on cells [4] was determined as 3.3. Moreover, in experiment [5], the pH inflection point is 6.59 pH.

B2: BAP-143-00-06 (antibody, V domains shown)
VH: B1 VH with M104D
VL: B1 VL with E33L
notes: as for B1
Turning to B2, the “Ratio (pH 7.4/6.0) of EC50” value with human Nectin-4 on cells [1] came to 2.6. The “Ratio (pH 7.4/6.0) of cell killing EC50” value with human Nectin-4 on cells [3] is 1.2. Besides, in the experiment with huNectin4-His, the Kd is 0.406 nM, the koff amounted to 0.00143 s⁻¹ and the kon was 3.52e+06 M⁻¹ s⁻¹. Further, the “Ratio (pH 7.4/6.0) of EC50” value in the experiment with human Nectin-4 on cells [4] turned out to be 1.2. Besides, the pH inflection point in experiment [5] was determined as 6.77 pH.
